Reference: article PMC11139282, “Structure and activity of the septal peptidoglycan hydrolysis machinery crucial for bacterial cell division” (PLOS Biology, 2024)

B1: FtsX(His&Myc) [E. coli K-12] / FtsE(Flag) [E. coli K-12] (parent)
chain 1: MIRFEHVSKAYLGGRQALQGVTFHMQPGEMAFLTGHSGAGKSTLLKLICGIERPSAGKIWFSGHDITRLKNREVPFLRRQIGMIFQDHHLLMDRTVYDNVAIPLIIAGASGDDIRRRVSAALDKVGLLDKAKNFPIQLSGGEQQRVGIARAVVNKPAVLLADEPTGNLDDALSEGILRLFEEFNRVGVTVLMATHDINLISRRSYRMLTLSDGHLHGGVGHE
chain 2: MNKRDAINHIRQFGGRLDRFRKSVGGSGDGGRNAPKRAKSSPKPVNRKTNVFNEQVRYAFHGALQDLKSKPFATFLTVMVIAISLTLPSVCYMVYKNVNQAATQYYPSPQITVYLQKTLDDDAAAGVVAQLQAEQGVEKVNYLSREDALGEFRNWSGFGGALDMLEENPLPAVAVVIPKLDFQGTESLNTLRDRITQINGIDEVRMDDSWFARLAALTGLVGRVSAMIGVLMVAAVFLVIGNSVRLSIFARRDSINVQKLIGATDGFILRPFLYGGALLGFSGALLSLILSEILVLRLSSAVAEVAQVFGTKFDINGLSFDECLLLLLVCSMIGWVAAWLATVQHLRHFTPE

Variants of: B1
Experiment: western blot of membrane fraction, quantified (FtsE retained on membrane with FtsX)
Conditions: with FtsE(Flag) [E. coli K-12]; parent: 1.3; read off a plot

Going from chain 2 MNKRDAINHIRQFGGRLDRFRKSVGGSGDGGRNAPKRAKSSPKPVNRKTNVFNEQVRYAFHGALQDLKSKPFATFLTVMVIAISLTLPSVCYMVYKNVNQAATQYYPSPQITVYLQKTLDDDAAAGVVAQLQAEQGVEKVNYLSREDALGEFRNWSGFGGALDMLEENPLPAVAVVIPKLDFQGTESLNTLRDRITQINGIDEVRMDDSWFARLAALTGLVGRVSAMIGVLMVAAVFLVIGNSVRLSIFARRDSINVQKLDGATDGFILRPFLYGGALLGFSGALLSLILSEILVLRLSSAVAEVAQVFGTKFDINGLSFDECLLLLLVCSMIGWVAAWLATVQHLRHFTPE [chain 2 I261D] to chain 2 MNKRDAINHIRQFGGRLDRFRKSVGGSGDGGRNAPKRAKSSPKPVNRKTNVFNEQVRYAFHGALQDLKSKPFATFLTVMVIAISLTLPSVCYMVYKNVNQAATQYYPSPQITVYLQKTLDDDAAAGVVAQLQAEQGVEKVNYLSREDALGEFRNWSGFGGALDMLEENPLPAVAVVIPKLDFQGTESLNTLRDRITQINGIDEVRMDDSWFARLAALTGLVGRVSAMIGVLMVAAVFLVIGNSVRLSIFARRDSINVQKLIGAKDGFILRPFLYGGALLGFSGALLSLILSEILVLRLSSAVAEVAQVFGTKFDINGLSFDECLLLLLVCSMIGWVAAWLATVQHLRHFTPE [chain 2 T264K], the response (OmpC adjusted) rises from 0.11 to 0.51.

Compared with chain 2 MNKRDAINHIRQFGGRLDRFRKSVGGSGDGGRNAPKRAKSSPKPVNRKTNVFNEQVRYAFHGALQDLKSKPFATFLTVMVIAISLTLPSVCYMVYKNVNQAATQYYPSPQITVYLQKTLDDDAAAGVVAQLQAEQGVEKVNYLSREDALGEFRNWSGFGGALDMLEENPLPAVAVVIPKLDFQGTESLNTLRDRITQINGIDEVRMDDSWFARLAALTGLVGRVSAMIGVLMVAAVFLVIGNSVRLSIFARRDSINPQKLIGATDGFILRPFLYGGALLGFSGALLSLILSEILVLRLSSAVAEVAQVFGTKFDINGLSFDECLLLLLVCSMIGWVAAWLATVQHLRHFTPE [chain 2 V257P], chain 2 MNKRDAINHIRQFGGRLDRFRKSVGGSGDGGRNAPKRAKSSPKPVNRKTNVFNEQVRYAFHGALQDLKSKPFATFLTVMVIAISLTLPSVCYMVYKNVNQAATQYYPSPQITVYLQKTLDDDAAAGVVAQLQAEQGVEKVNYLSREDALGEFRNWSGFGGALDMLEENPLPAVAVVIPKLDFQGTESLNTLRDRITQINGIDEVRMDDSWFARLAALTGLVGRVSAMIGVLMVAAVFLVIGNSVRLSIFARRDSINVQKLIGATDGAILRPFLYGGALLGFSGALLSLILSEILVLRLSSAVAEVAQVFGTKFDINGLSFDECLLLLLVCSMIGWVAAWLATVQHLRHFTPE [chain 2 F267A] is higher in response (OmpC adjusted): 0.38 for the first, 0.5 for the second.
